Source: patent publication US20150197564A1 (Regeneron, published 2015)

Experiments:
Test in all cases: SPR Biacore, antigen captured, 25C, pH 7.4, HBS-EP
[1] = target: T1, MfANGPTL3(17-170)-mmH (Macaca fascicularis)
T1 construct: also called N-terminal coiled-coil domain of ANGPTL3 from Macaca fascicularis with myc-myc-hexahistidine tag; Monkey ANGPTL3 (17-170)-mmH
T1 chain: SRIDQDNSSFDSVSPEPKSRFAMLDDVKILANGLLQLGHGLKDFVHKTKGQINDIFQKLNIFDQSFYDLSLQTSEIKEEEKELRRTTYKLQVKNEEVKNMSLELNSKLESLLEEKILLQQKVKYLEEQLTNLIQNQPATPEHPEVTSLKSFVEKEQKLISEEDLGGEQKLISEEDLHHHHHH
Experimental: (§1) All kinetic binding experiments were performed at 25° C. or 37° C. on a BIACORE™ T200 label-free molecular interaction instrument (GE Healthcare) using a CM5 sensor chip. Briefly, an antigen capture surface was generated by covalently coupling either an anti-mouse IgG-specific antibody (anti-mFc; GE Healthcare; catalog #BR-1008-38) or an anti-pentahistidine-specific antibody (Qiagen; catalog #34660) to the surface of a CM5 sensor chip using a standard amine coupling method.

[2] = target: T2, hANGPTL3(17-170)-His (human, UniProt Q9Y5C1 17-170)
T2 construct: also called N-terminal coiled-coil domain of hANGPTL3 with a C-terminal hexahistidine tag; Human ANGPTL3 (17-170)-His
T2 sequence: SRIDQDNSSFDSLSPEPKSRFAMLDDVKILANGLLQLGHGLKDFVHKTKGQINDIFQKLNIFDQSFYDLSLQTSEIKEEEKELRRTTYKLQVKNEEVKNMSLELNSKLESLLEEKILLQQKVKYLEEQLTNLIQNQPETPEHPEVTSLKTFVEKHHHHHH
Experimental: as §1

[3] = target: T3, rANGPTL3(17-240)-mmH (Rattus norvegicus)
T3 construct: also called N-terminal coiled-coil domain of ANGPTL3 from Rattus norvegicus with myc-myc-hexahistidine tag
T3 chain: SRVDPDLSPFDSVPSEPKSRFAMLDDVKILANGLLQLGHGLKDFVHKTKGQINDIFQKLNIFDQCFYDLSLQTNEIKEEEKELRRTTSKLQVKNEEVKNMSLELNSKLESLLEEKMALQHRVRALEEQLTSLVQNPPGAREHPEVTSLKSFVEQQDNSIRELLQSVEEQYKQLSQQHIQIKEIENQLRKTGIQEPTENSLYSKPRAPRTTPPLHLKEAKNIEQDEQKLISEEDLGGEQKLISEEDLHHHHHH
Experimental: as §1

[4] = target: T4, mANGPTL3(17-240)-His (Mus musculus, UniProt Q9R182 17-240)
T4 construct: also called N-terminal coiled-coil domain of ANGPTL3 from Mus musculus with a hexahistidine tag; Mouse ANGPTL3 (17-240)-His
T4 sequence: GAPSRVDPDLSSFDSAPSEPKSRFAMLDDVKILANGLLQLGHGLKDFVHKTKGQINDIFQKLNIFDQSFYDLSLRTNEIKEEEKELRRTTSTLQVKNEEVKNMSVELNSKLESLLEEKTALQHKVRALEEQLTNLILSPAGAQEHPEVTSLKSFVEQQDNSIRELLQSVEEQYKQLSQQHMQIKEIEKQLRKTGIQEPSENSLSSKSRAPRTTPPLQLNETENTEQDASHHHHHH
Experimental: as §1

[5] = target: T5, mANGPTL3(17-455)-His (Mus musculus, UniProt Q9R182 17-455)
T5 construct: Bought protein (R&D Systems); also called full-length mature ANGPTL3 from Mus musculus with a C-terminal decahistidine tag
T5 sequence: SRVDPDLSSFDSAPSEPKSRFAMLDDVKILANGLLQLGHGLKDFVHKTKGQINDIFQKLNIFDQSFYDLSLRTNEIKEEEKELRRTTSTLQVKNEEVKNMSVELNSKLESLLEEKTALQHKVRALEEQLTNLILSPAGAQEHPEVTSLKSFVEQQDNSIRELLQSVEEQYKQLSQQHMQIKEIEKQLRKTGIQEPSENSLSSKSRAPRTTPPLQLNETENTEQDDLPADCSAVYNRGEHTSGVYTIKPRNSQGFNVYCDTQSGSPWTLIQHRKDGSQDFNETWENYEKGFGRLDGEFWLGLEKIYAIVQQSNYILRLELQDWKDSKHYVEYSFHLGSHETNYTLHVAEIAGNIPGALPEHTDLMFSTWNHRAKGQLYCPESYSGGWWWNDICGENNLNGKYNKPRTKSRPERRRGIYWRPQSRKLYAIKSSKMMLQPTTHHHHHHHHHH
Experimental: as §1

[6] = target: T6, hANGPTL3(17-460)-His (human, UniProt Q9Y5C1 17-460)
T6 construct: Bought protein (R&D Systems); also called full-length mature human ANGPTL3 with a C-terminal decahistidine tag; Human ANGPTL3 (17-460)-His
T6 sequence: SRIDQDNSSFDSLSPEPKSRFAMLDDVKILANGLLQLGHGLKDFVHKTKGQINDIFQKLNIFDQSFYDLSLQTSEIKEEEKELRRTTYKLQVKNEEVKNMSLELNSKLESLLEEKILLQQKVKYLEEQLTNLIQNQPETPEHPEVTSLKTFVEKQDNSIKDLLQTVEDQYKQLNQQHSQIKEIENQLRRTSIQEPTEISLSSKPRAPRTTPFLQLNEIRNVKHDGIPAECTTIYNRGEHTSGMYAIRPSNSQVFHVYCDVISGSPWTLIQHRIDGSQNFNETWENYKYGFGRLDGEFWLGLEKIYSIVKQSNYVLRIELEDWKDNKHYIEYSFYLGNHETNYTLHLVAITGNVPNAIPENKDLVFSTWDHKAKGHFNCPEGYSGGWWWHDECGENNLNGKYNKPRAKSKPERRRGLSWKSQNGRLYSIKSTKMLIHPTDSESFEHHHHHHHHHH
Experimental: as §1

Kd [1]: 0.396 nM | koff [1]: 0.000535 s⁻¹ | kon [1]: 1.35e+06 M⁻¹ s⁻¹ | t1/2 [1]: 21.6 min | Kd [2]: 0.938 nM | koff [2]: 0.000912 s⁻¹ | kon [2]: 973000 M⁻¹ s⁻¹ | t1/2 [2]: 12.7 min | Kd [3]: 0.53 nM | koff [3]: 0.000718 s⁻¹ | kon [3]: 1.35e+06 M⁻¹ s⁻¹ | t1/2 [3]: 16.1 min | Kd [4]: 0.458 nM | koff [4]: 0.000307 s⁻¹ | kon [4]: 670000 M⁻¹ s⁻¹ | t1/2 [4]: 37.6 min | Kd [5]: 0.268 nM | koff [5]: 0.000346 s⁻¹ | kon [5]: 1.29e+06 M⁻¹ s⁻¹ | t1/2 [5]: 33.4 min | Kd [6]: 0.491 nM | koff [6]: 0.000289 s⁻¹ | kon [6]: 588000 M⁻¹ s⁻¹ | t1/2 [6]: 40 min
B1: H4H1276S (antibody, IgG4, V domains shown)
VH: EVQLVESGGGVIQPGGSLRLSCAASGFTFDDYAMNWVRQGPGKGLEWVSAISGDGGSTYYADSVKGRFTISRDNSKNSLYLQMNSLRAEDTAFFYCAKDLRNTIFGVVIPDAFDIWGQGTMVTVSS
VL: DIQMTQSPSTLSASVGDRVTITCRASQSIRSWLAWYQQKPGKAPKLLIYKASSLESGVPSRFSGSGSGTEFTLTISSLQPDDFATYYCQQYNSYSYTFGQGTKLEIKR
